Data on 5 molecules can be found in paper PMC11087588, “Genetic and functional diversity of β-N-acetylgalactosamine-targeting glycosidases expanded by deep-sea metagenome analysis” (Nature Communications, 2024).

In general, Km refers to the concentration of substrate that gives half-maximal velocity. As usually defined, the kcat is the maximal rate divided by the concentration of active sites.

For one data set, the target named is T1, NgaDssm (metagenome, UniProt Z9PL66MBS5).
T1 construct: signal peptide removed; pET-47b(+), E. coli BL21 Star (DE3); His tag cut with HRV3C; monomer
T1 sequence (Z9PL66MBS5 4-542): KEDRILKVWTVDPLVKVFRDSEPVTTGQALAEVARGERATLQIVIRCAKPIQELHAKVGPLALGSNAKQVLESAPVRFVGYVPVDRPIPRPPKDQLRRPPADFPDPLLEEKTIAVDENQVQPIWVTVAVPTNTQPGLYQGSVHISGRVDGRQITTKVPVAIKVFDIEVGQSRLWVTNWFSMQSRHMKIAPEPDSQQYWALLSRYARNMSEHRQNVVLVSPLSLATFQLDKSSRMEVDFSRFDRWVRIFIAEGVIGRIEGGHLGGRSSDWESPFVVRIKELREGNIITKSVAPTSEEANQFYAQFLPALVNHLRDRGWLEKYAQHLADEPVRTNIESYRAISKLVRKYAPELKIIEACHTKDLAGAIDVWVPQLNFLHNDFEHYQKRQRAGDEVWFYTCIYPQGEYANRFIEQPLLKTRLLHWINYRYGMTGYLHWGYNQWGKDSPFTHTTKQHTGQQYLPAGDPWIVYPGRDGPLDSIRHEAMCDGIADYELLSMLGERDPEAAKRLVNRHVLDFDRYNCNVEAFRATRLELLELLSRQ
In words: crystal structure of complex. Type of data set: binding. Particulars: 5 mM ligand in crystallization; active site, oxazolinium intermediate analogue.

The target of another data set is T2, NgaP2 (Paenibacillus sp. TS12, UniProt A0AAT8XUB3).
T2 construct: cloned from genomic DNA, pET-47b(+), E. coli BL21 Star (DE3); His tag cut with HRV3C; monomer; not the GH123 NgaP of the same strain
T2 sequence (A0AAT8XUB3 4-581): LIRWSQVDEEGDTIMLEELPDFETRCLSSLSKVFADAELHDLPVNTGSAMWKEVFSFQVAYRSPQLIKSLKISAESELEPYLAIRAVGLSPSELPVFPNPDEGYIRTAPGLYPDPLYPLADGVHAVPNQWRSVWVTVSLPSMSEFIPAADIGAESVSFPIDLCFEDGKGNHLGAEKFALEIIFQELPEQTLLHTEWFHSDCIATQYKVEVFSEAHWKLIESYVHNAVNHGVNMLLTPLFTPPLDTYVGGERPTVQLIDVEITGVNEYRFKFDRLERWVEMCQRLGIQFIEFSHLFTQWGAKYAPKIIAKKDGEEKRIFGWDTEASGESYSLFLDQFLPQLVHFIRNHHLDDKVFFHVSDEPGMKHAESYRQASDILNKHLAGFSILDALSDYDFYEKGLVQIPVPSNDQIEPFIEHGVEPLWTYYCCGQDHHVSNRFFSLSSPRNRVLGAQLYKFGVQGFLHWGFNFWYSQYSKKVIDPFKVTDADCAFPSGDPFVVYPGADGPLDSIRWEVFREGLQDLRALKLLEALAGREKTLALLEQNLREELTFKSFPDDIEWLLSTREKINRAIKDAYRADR
In words: crystal structure of complex. Type of data set: binding. Particulars: 5 mM ligand in crystallization; active site, oxazolinium intermediate analogue.

Data set [1] deals with T3, NgaLy (Lacticaseibacillus yichunensis, UniProt A0ABW4CMK8, Y392A).
T3 construct: gene ACFQ47_05640; synthetic gene, pET-47b(+), E. coli BL21 Star (DE3); His tag cut with HRV3C; monomer; DE motif D327/E328
In words: relative activity versus wild type. Type of data set: biochemical. Particulars: substrate taken from the standard assay (Assay I).

Data set [2] has as its target T4, NgaLy (Lacticaseibacillus yichunensis, UniProt A0ABW4CMK8, W431A).
T4 construct: gene ACFQ47_05640; synthetic gene, pET-47b(+), E. coli BL21 Star (DE3); His tag cut with HRV3C; monomer; DE motif D327/E328
The data set can be described thus: relative activity versus wild type. Type of data set: biochemical. The settings on record: substrate taken from the standard assay (Assay I).

Substrate in data set [3]: CC(=O)N[C@H]1[C@H](Oc2ccc([N+](=O)[O-])cc2)O[C@H](CO)[C@H](O)[C@@H]1O
In words: purified protein. Type of data set: biochemical, Brachybacterium faecium. The settings on record: citrate pH 6.5, 35 °C (optimum), apparent, not saturated up to 2 mM.

Substrate in data set [4]: CC(=O)N[C@H]1[C@H](Oc2ccc([N+](=O)[O-])cc2)O[C@H](CO)[C@H](O)[C@@H]1O
The data set can be described thus: purified protein. Type of data set: biochemical, Paenibacillus sp. TS12. Particulars: citrate pH 5.5, 40 °C (optimum), apparent, not saturated up to 2 mM.

Substrate in data set [5]: CC(=O)N[C@H]1[C@H](Oc2ccc([N+](=O)[O-])cc2)O[C@H](CO)[C@H](O)[C@@H]1O
The data set can be described thus: purified protein. The settings on record: HEPES pH 7.0, 40 °C (optimum), apparent, not saturated up to 2 mM. Type of data set: biochemical, Lacticaseibacillus yichunensis.

T4 sequence (A0ABW4CMK8 entry or part of it W431A): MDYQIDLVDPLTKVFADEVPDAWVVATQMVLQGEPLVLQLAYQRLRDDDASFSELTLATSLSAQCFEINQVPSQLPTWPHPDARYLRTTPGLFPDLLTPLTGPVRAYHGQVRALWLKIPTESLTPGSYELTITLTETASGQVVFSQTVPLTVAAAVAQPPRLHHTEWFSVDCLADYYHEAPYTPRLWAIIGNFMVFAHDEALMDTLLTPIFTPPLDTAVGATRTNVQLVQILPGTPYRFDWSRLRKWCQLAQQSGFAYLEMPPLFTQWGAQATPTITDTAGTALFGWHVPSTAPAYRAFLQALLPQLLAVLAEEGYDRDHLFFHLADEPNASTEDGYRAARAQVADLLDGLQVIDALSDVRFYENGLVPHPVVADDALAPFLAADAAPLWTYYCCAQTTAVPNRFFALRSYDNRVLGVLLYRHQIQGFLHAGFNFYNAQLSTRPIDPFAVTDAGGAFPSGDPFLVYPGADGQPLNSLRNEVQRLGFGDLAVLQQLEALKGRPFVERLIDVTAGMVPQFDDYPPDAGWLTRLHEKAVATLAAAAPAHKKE
T3 sequence (A0ABW4CMK8 entry or part of it Y392A): as the sequence (A0ABW4CMK8 entry or part of it W431A) above, with Y392A, A431W counted along it

Take `CC1=N[C@@H]2[C@@H](O)[C@@H](O)[C@@H](CO)O[C@@H]2S1` [GalNAc-thiazoline]: the “crystal structure of complex” value is “the structures of the NgaAt, NgaDssm, and NgaP2 complexes with GalNAc-thiazoline were successfully characterized” on NgaDssm; “the structures of the NgaAt, NgaDssm, and NgaP2 complexes with GalNAc-thiazoline were successfully characterized” at NgaP2.
As for `CC(=O)N[C@H]1[C@H](Oc2ccc([N+](=O)[O-])cc2)O[C@H](CO)[C@H](O)[C@@H]1O` [GalNAc-β-pNP], the “relative activity versus wild type” value at NgaLy [1] was “The Y392A and W431A mutants were purified as soluble enzymes”; at NgaLy [2] it was “The Y392A and W431A mutants were purified as soluble enzymes”.

B1: NgaBf (Brachybacterium faecium DSM 4810) (protein)
chain: MQTVLTDSLEKVLGESAPRPAAPIGGAHASGFLGEVLSVQVALRAEEGEAPDPRSAEHAALRVRLGGEIADSARVHAVRRVPVSSPAPAEADEHYLATAPGEYPDLLEPLGGEEVRVGRGLWEALWIDVIDAPPGEHTLTLALTDTTGEQVLAEHAVQLRVHPHQLPPLSITNTHWFHADSLSTYYDVEVLSPQHWELIEAFLASAREMDVTSVLTPTWTPPLDTAEGHTRPFVQLIGIREEEGEYSFDLSALDRWLEICGRLGFTGIEIAHLFTQWGARSTPAIQVETGSGLEHRFGWHVPATSPEYRRLLEALIPVLRAHLEEHWDGQVLWHISDEPHEDQLDSYRAAKEQVADLLEGAQVVDALSSLAFAEQGVVDTPIVATSHVGPFLEAGRRPWVYYCVSQNRDVANRFIAQPSVRNRVLGRQLFAFDAPGFLHWGYNFWWAQFSLRPIDPFEETCAGGPFFGGDSFAVYPGPEGTPWLSLRHRVFAQAMADHRALTWLAELTDRPSAVALVDEGGTLTYSSFSYDVHAHLEARHAVDERIRAALAA
notes: synthetic gene, pET-47b(+), E. coli BL21 Star (DE3); His tag cut with HRV3C; monomer
As to B1, in the data set “purified protein [3]”, the Km was determined as 1000 ± 70 µM and the kcat was 170 ± 5 s⁻¹.

B2: NgaP2 (Paenibacillus sp. TS12) (protein)
chain: LIRWSQVDEEGDTIMLEELPDFETRCLSSLSKVFADAELHDLPVNTGSAMWKEVFSFQVAYRSPQLIKSLKISAESELEPYLAIRAVGLSPSELPVFPNPDEGYIRTAPGLYPDPLYPLADGVHAVPNQWRSVWVTVSLPSMSEFIPAADIGAESVSFPIDLCFEDGKGNHLGAEKFALEIIFQELPEQTLLHTEWFHSDCIATQYKVEVFSEAHWKLIESYVHNAVNHGVNMLLTPLFTPPLDTYVGGERPTVQLIDVEITGVNEYRFKFDRLERWVEMCQRLGIQFIEFSHLFTQWGAKYAPKIIAKKDGEEKRIFGWDTEASGESYSLFLDQFLPQLVHFIRNHHLDDKVFFHVSDEPGMKHAESYRQASDILNKHLAGFSILDALSDYDFYEKGLVQIPVPSNDQIEPFIEHGVEPLWTYYCCGQDHHVSNRFFSLSSPRNRVLGAQLYKFGVQGFLHWGFNFWYSQYSKKVIDPFKVTDADCAFPSGDPFVVYPGADGPLDSIRWEVFREGLQDLRALKLLEALAGREKTLALLEQNLREELTFKSFPDDIEWLLSTREKINRAIKDAYRADR
notes: cloned from genomic DNA, pET-47b(+), E. coli BL21 Star (DE3); His tag cut with HRV3C; monomer; not the GH123 NgaP of the same strain
Turning to B2, in the data set “purified protein [4]”, the Km was determined as 360 ± 30 µM and the kcat is 28 ± 0.6 s⁻¹.

B3: NgaLy (Lacticaseibacillus yichunensis) (protein)
chain: MDYQIDLVDPLTKVFADEVPDAWVVATQMVLQGEPLVLQLAYQRLRDDDASFSELTLATSLSAQCFEINQVPSQLPTWPHPDARYLRTTPGLFPDLLTPLTGPVRAYHGQVRALWLKIPTESLTPGSYELTITLTETASGQVVFSQTVPLTVAAAVAQPPRLHHTEWFSVDCLADYYHEAPYTPRLWAIIGNFMVFAHDEALMDTLLTPIFTPPLDTAVGATRTNVQLVQILPGTPYRFDWSRLRKWCQLAQQSGFAYLEMPPLFTQWGAQATPTITDTAGTALFGWHVPSTAPAYRAFLQALLPQLLAVLAEEGYDRDHLFFHLADEPNASTEDGYRAARAQVADLLDGLQVIDALSDVRFYENGLVPHPVVADDALAPFLAADAAPLWTYYCCAQTTAVPNRFFALRSYDNRVLGVLLYRHQIQGFLHWGFNFYNAQLSTRPIDPFAVTDAGGAFPSGDPFLVYPGADGQPLNSLRNEVQRLGFGDLAVLQQLEALKGRPFVERLIDVTAGMVPQFDDYPPDAGWLTRLHEKAVATLAAAAPAHKKE
notes: synthetic gene, pET-47b(+), E. coli BL21 Star (DE3); His tag cut with HRV3C; monomer; DE motif D327/E328
As to B3, in the data set “purified protein [5]”, the Km turned out to be 1000 ± 50 µM and the kcat is 480 ± 10 s⁻¹.
